Laboratory results from patent publication US5773001 (American Cyanamid Company, dated 1998).
Like-named read-outs stand apart in the source and are kept apart here. Each block holds one molecule with its values, some of them ahead of it.

Key:
CD33 antigen (human) [1] = molecular target: CD33 antigen (human) (UniProt P20138)
CD33 antigen (human) [2] = molecular target: CD33 antigen (human) (UniProt P20138); assay: competition with 125I-labelled native antibody on HEL 92.1.7 cells; IC50 (reference) / IC50 (sample)
[3] = molecular target: T1, glycoprotein antigen present on colon cancer cells, recognized by A33 (Homo sapiens (Human)) (UniProt Q99795); assay: competition on Colo205 cells, FACScan; competitor FITC-labelled murine A33
T1 sequence: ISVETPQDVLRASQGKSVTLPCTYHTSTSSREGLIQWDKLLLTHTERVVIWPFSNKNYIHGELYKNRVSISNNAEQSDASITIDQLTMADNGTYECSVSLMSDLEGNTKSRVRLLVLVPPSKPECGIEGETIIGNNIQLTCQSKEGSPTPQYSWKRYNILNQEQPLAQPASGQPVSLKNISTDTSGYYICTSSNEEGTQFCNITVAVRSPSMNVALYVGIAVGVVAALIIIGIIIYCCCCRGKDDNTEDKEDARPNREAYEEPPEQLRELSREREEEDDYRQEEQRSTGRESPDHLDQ

CD33 antigen (human) [4] = molecular target: CD33 antigen (human) (UniProt P20138); assay: competition with 125I-labelled native antibody on HEL 92.1.7 cells; IC50 (reference) / IC50 (sample); remark: listed apart in the source
CD33 antigen (human) [5] = molecular target: CD33 antigen (human) (UniProt P20138); remark: listed apart in the source
CD33 antigen (human) [6] = molecular target: CD33 antigen (human) (UniProt P20138); remark: listed apart in the source
soluble CD33 antigen = soluble CD33 antigen (Homo sapiens (Human), UniProt P20138); assay: inhibition of binding to HL60 cells by pre-incubation with soluble antigen
CD33 antigen (human) [7] = molecular target: CD33 antigen (human) (UniProt P20138); assay: competition binding on HL60 cells against murine antibody
CD33 antigen (human) [8] = molecular target: CD33 antigen (human) (UniProt P20138); remark: listed apart in the source
[9] = molecular target: T1, glycoprotein antigen present on colon cancer cells, recognized by A33 (Homo sapiens (Human))
[10] = molecular target: T1, glycoprotein antigen present on colon cancer cells, recognized by A33 (Homo sapiens (Human)); assay: competition with 125I-labelled native antibody on COLO 205 cells; IC50 (reference) / IC50 (sample)
[11] = molecular target: polyepithelial mucin (PEM) antigen on cells (human) (UniProt P15941); assay: competition with 125I-labelled native antibody on A2780DDP cells; IC50 (reference) / IC50 (sample)
[12] = molecular target: polyepithelial mucin (PEM) antigen on cells (human) (UniProt P15941)
[13] = molecular target: polyepithelial mucin (PEM) antigen on cells (human) (UniProt P15941); remark: listed apart in the source
[14] = molecular target: T2, polymorphic epithelial mucin (PEM) (human, UniProt P15941); assay: reactivity of affinity column fractions with the CTM01 MAb
[15] = molecular target: T2, polymorphic epithelial mucin (PEM); assay: competition EIA on PEM-coated plates; competitor biotinylated CTM01 MAb

Chain of polyepithelial mucin (PEM) antigen on cells (human) (P15941 24-1255): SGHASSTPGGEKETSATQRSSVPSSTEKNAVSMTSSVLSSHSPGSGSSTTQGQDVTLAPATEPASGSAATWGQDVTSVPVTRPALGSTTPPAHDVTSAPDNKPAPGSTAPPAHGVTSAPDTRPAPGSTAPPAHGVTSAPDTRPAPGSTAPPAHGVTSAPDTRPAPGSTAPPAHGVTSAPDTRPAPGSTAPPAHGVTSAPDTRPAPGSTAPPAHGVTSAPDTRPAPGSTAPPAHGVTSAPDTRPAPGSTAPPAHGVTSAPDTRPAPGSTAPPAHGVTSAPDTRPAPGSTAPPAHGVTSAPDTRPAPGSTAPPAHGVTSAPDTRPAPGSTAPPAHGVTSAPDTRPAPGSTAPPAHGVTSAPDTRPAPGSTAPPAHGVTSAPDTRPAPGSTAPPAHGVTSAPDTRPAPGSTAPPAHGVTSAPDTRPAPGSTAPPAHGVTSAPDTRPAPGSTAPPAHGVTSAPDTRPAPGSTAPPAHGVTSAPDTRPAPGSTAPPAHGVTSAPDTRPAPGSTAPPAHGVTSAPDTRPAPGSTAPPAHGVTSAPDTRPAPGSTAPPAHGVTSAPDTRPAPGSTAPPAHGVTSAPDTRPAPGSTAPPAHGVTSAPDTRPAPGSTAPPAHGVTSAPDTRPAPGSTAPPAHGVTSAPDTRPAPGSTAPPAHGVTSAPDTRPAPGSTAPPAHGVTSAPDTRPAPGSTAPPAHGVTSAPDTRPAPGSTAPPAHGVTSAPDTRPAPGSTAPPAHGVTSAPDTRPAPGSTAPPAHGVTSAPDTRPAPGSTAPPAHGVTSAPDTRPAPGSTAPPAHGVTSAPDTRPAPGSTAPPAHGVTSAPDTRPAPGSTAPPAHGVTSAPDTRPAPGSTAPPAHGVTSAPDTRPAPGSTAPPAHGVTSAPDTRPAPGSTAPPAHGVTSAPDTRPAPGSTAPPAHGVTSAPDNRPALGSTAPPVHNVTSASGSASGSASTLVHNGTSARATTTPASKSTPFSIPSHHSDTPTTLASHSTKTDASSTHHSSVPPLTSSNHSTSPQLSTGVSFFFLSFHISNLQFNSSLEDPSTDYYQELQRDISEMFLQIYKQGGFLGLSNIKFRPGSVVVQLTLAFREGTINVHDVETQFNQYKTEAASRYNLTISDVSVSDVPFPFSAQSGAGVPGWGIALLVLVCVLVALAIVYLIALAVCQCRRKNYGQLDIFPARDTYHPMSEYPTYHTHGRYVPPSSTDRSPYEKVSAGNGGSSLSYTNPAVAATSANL

Molecule: Conjugate of 4-formylbenzoic acid (2) condensed with Calicheamicin N-acetyl gamma dimethyl hydrazide and m-P67.6 (antibody)
In vitro IC50 (3H-thymidine incorporation) (CD33 antigen (human) [1]): 4 ng/mL
Rel. Affinity (CD33 antigen (human) [2]): 1.05

B2: Conjugate of 2-acetyl-10H-phenothiazine-10-hexanoic acid (32) condensed with Calicheamicin N-acetyl gamma dimethyl hydrazide and h-P67.6 (antibody, V domains shown)
VH: EVQLVQSGAEVKKPGSSVKVSCKASGYTITDSNIHWVRQAPGQSLEWIGYIYPYNGGTDYNQKFKNRATLTVDNPTNTAYMELSSLRSEDTDFYYCVNGNPWLAYWGQGTLVTVSS
VL: DIQLTQSPSTLSASVGDRVTITCRASESLDNYGIRFLTWFQQKPGKAPKLLMYAASNQGSGVPSRFSGSGSGTEFTLTISSLQPDDFATYYCQQTKEVPWSFGQGTKVEVKR
modifications: drug-linker amide on lysine side chains, sites not stated; drug-linker amide on lysine side chains, sites not stated
Rel. Affinity (CD33 antigen (human) [4]): 1.25
In vitro IC50 (3H-thymidine incorporation) (CD33 antigen (human) [6]): 0.021 ng/mL

B5: Conjugate of 4-(4-acetylphenoxy)butanoic acid (7) condensed with calicheamicin N-acetyl gamma dimethyl hydrazide and m-A33 (antibody, V domains shown)
VH: EVKLVESGGGLVKPGGSLKLSCAASGFAFSTYDMSWVRQTPEKRLEWVATISSGGSYTYYLDSVKGRFTISRDSPRNTLYLQMSSLRSEDTALYYCAPTTVVPFAYWGQGTLVTVSA
VL: DIVMTQSQKFMSTSVGDRVSITCKASQNVRTVVAWYQQKPGQSPKTLIYLASNRHTGVPDRFTGSGSGTDFTLTISNVQSEDLADYFCLQHWSYPLTFGSGTKLEVKR
modifications: drug-linker amide on lysine side chains, sites not stated; drug-linker amide on lysine side chains, sites not stated
In vitro IC50 (3H-thymidine incorporation) [9]: 3.32 ng/mL
Rel. Affinity [10]: 0.68

B6: Conjugate of 4-formylphenoxyacetic acid (1) condensed with Calicheamicin N-acetyl gamma dimethyl hydrazide and m-CT-M-01 (antibody, V domains shown)
VH: QIQLQQSGPELVKPGASVKISCKASGYTFTDYYINWMKQKPGQGLEWIGWIDPGSGNTKYNEKFKGKATLTVDTSSSTAYMQLSSLTSEDTAVYFCAREKTTYYYAMDYWGQGTSVTVSA
VL: DIVMTQAAPSVPVTPGESLSISCRSSKSLLHSNGDTFLYWFLQRPGQSPQLLIYRMSNLASGVPDRFSGSGSGTAFTLRVSRVEAEDVGVYYCMQHLEYPFTFGAGTKLELKR
modifications: drug-linker amide on lysine side chains, sites not stated; drug-linker amide on lysine side chains, sites not stated
Rel. Affinity [11]: 0.84
In vitro IC50 (3H-thymidine incorporation) [12]: 1.5 ng/mL

Now from value to molecule:

relative potency against the murine antibody [3]: 75%
Molecule: humanized A33 (antibody)

Rel. Affinity (CD33 antigen (human) [4]): 0.95
In vitro IC50 (3H-thymidine incorporation) (CD33 antigen (human) [5]): < 0.005 ng/mL
B1: Conjugate of 4-(2-Acetylphenoxy)butanoic acid (31) condensed with Calicheamicin N-acetyl gamma dimethyl hydrazide and h-P67.6 (antibody, V domains shown)
VH: B2 VH
VL: B2 VL
modifications: drug-linker amide on lysine side chains, sites not stated; drug-linker amide on lysine side chains, sites not stated

binding result (soluble CD33 antigen): binds
loss in immunoaffinity against the murine antibody (CD33 antigen (human) [7]): 50%
B3: h-P67.6 (antibody, V domains shown)
VH: B2 VH
VL: B2 VL

Rel. Affinity (CD33 antigen (human) [4]): 0.91
In vitro IC50 (3H-thymidine incorporation) (CD33 antigen (human) [8]): < 0.005 ng/mL
B4: Conjugate of 4-acetylphenylacetic acid (33) condensed with Calicheamicin N-acetyl gamma dimethyl hydrazide and h-P67.6 (antibody, V domains shown)
VH: B2 VH
VL: B2 VL
modifications: drug-linker amide on lysine side chains, sites not stated; drug-linker amide on lysine side chains, sites not stated

Rel. Affinity [11]: 0.9
In vitro IC50 (3H-thymidine incorporation) [13]: 5.6 ng/mL
B7: Conjugate of 4-formylbenzoic acid (2) condensed with Calicheamicin N-acetyl gamma dimethyl hydrazide and m-CT-M-01 (antibody, V domains shown)
VH: B6 VH
VL: B6 VL
modifications: drug-linker amide on lysine side chains, sites not stated; drug-linker amide on lysine side chains, sites not stated

binding result [14]: binds
B8: CTM01 MAb (antibody, V domains shown)
VH: B6 VH
VL: B6 VL

binding result [15]: binds
B9: gL1gH2 (antibody, V domains shown)
VH: QIQLVQSGAEVKKPGSSVKVSCKASGYTFTDYYINWMRQAPGQGLEWIGWIDPGSGNTKYNEKFKGRATLTVDTSTNTAYMELSSLRSEDTAFYFCAREKTTYYYAMDYWGQGTLVTVSS
VL: DIQMTQSPSTLSASVGDRVTITCRSSKSLLHSNGDTFLYWFQQKPGKAPKLLMYRMSNLASGVPSRFSGSGSGTEFTLTISSLQPDDFATYYCMQHLEYPFTFGQGTKVEVKR
